Here are results for two molecules from US6140490, “High affinity nucleic acid ligands of complement system proteins” (NeXstar Pharmaceuticals, Inc.).

One data set deals with Complement C5 (Homo sapiens, UniProt P01031;P01031 P01031:19-673,P01031:678-1676). Kind of data set: minimal structure from boundary analysis; called 38mer in text. The note with it: tags: Quidel. Here is the method: A secondary structure for an inhibitory C5 Nucleic Acid Ligand as determined by current art (Green et al. (1995) Chem & Biol. 2:683) is shown in FIG. 3 (SEQ ID NO:75). The smallest structure which would bind C5 is determined by: a) radiolabeling the C5 Nucleic Acid Ligand at both the 3' and the 5' end; b) treating the labeled Nucleic Acid Ligand by partial base-hydrolyzed to split a portion of the bonds between nucleotides; c) incubating the partially hydrolyzed Nucleic Acid Ligand with C5 protein and then eluting the bound Nucleic Acid Ligand; and d) analyzing the eluted Nucleic Acid Ligand on gels. In this procedure, the Nucleic Acid Ligand initially binds to C5 as bases are removed from the Nucleic Acid Ligand. When an essential base is removed, the Nucleic Acid Ligand is no longer able to bind. This first essential base determines the boundary of the minimal Nucleic Acid Ligand structure. For a human C5 Nucleic Acid Ligand the smallest binding structure is believed to comprise the sequence with proposed base-pairing pattern shown in FIG. 3.

The next data set concerns the target Complement C1q (Homo sapiens, UniProt P02745;P02746;P02747 P02745:23-245,P02746:28-253,P02747:29-245). Kind of data set: filter; MgPBS, 37 C; still binds C1q on immune complexes; competed by SAP, beta-amyloid, CRP and A-chain 14-26 peptide. The note with it: tags: Quidel; chain copies: 6; label: 32P. Here is the method:
Individual cloned DNA was T7 transcribed with α-[^32P]-ATP and the full length [^32P]-2'-NH_2-RNA or 2'-F-RNA was gel-purified (as above). RNA was suspended at approximately 5,000 cpm per 30 µl sample (<10 pM), and aliquots were incubated with various concentrations of C1q, C3 or C5 in MgPBS for 10 minutes at 37° C. Samples were then filtered through nitrocellulose, the filters washed with buffer and dried under an infrared lamp, and counted with addition of scintillation fluid (Ecoscint A, National Diagnostics, Atlanta, Ga.). A background sample of RNA alone was run in parallel. […] Filters were washed and counted.
RNA ligand binding to C1q was also measured in the presence of immune-complexes, which would block the binding of ligands to C1q head-groups. Immune complexes (IC) were formed by mixing 620 µg BSA at equivalence with 1 ml of rabbit anti-BSA (Sigma, St. Louis, Mo.) plus PEG 8000 added to 1% final concentration, and then the samples were incubated overnight at 4° C. The IC were pelleted by microfugation at 12,000 rpm for 10 minutes, washed five times with PBS, and suspended in 1 ml of MgPBS. […] Samples were incubated for 30 minutes at room temperature, microfuged, and the pellets and supernatants counted.

Sequence of Complement C5 (P01031 19-673, chain 1 of 2): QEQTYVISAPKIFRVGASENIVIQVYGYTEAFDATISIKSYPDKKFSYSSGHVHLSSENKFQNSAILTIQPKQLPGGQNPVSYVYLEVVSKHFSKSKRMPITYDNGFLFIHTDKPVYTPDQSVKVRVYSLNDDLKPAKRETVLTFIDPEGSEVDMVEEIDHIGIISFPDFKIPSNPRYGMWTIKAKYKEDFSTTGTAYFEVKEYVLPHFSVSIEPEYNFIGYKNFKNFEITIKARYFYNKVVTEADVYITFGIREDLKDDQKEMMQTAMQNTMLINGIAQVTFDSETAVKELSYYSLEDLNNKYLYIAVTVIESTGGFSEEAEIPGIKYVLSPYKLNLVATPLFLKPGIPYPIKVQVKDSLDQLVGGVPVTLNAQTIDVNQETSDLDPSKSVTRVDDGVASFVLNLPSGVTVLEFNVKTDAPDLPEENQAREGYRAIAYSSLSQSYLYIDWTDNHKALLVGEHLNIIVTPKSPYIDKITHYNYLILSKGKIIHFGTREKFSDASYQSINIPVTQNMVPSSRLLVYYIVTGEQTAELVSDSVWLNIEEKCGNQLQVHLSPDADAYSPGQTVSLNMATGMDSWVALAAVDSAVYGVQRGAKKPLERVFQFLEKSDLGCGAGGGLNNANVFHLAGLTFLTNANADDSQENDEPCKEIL
Sequence of Complement C5 (P01031 678-1676, chain 2 of 2): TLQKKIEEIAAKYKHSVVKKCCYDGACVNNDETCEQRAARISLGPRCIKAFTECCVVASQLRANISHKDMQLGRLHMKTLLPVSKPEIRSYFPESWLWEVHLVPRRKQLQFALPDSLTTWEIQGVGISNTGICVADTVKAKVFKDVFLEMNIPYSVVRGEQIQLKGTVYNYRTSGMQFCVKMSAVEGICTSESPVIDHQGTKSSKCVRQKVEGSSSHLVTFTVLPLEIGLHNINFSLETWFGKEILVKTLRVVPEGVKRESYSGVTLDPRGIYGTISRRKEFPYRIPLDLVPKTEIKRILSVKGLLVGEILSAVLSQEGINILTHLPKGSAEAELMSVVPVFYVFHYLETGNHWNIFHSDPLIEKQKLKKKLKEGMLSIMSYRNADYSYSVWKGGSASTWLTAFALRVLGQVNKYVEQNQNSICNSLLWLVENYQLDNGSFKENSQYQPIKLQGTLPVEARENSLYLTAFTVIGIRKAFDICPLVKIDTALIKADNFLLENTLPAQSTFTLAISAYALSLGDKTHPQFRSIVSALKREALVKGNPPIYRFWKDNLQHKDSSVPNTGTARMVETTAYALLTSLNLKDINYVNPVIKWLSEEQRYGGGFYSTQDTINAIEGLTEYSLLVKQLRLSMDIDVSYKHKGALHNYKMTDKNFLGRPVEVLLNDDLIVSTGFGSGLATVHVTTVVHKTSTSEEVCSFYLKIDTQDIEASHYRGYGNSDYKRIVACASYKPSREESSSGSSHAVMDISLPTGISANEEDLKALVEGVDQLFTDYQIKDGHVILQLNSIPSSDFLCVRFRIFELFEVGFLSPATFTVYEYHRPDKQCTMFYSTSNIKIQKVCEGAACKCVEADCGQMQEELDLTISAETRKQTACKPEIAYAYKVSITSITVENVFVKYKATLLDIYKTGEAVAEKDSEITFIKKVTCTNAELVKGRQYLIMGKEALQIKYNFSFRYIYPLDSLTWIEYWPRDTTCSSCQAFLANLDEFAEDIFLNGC
Sequence of Complement C1q (P02745 23-245, chain 1 of 3): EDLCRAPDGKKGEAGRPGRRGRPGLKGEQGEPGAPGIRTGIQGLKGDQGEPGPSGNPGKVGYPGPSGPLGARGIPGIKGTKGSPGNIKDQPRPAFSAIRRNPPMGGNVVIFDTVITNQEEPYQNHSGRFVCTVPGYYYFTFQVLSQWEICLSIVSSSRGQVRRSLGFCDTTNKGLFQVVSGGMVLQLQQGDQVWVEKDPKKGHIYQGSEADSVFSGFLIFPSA
Sequence of Complement C1q (P02746 28-253, chain 2 of 3): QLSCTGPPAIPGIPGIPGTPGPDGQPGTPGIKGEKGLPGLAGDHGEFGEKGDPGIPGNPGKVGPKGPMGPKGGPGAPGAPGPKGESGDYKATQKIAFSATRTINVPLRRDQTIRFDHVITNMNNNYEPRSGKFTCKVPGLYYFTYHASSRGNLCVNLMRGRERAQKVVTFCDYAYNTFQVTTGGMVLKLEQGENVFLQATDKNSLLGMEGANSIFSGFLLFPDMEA
Sequence of Complement C1q (P02747 29-245, chain 3 of 3): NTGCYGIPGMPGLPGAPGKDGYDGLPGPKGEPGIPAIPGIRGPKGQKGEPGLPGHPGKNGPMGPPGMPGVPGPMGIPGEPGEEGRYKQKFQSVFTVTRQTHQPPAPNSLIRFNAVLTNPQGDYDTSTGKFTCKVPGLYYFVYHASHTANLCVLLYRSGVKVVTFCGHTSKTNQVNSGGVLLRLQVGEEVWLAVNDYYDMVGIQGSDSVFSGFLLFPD

As for GACGAUGCGGUCUCAUGCGUCGAGUGUGAGUUUACCUUCGUC (ssRNA, 2'-F C and U) [truncated C5 ligand (FIG. 3)], the binding result in the data set with Complement C5 is given as “binds”.

B1: clone 50 (ssRNA)
RNA: GGGAGGACGAUGCGGGUGGAGUGGAGGUAUAACGGCCGGUAGCGCAUCCCACUCGGGUCUGCGGUAGACGACUCGCCCGA
modifications: 2'-NH2 C and U
As a reminder, the Kd is the concentration at which binding is half-saturated. B1 gave a Kd with Complement C1q of 0.979 nM.
